Numbered stars: 1 amine (or outer) side, 2 acyl side, 3 side chain; on linkers, the order of the positions; unused ones are H or OH. Bridge positions count the residues as written; N and C are the ends. Square brackets hold non-standard residues; d marks the D form. Primed or numbered codes have the meaning given here. MB(4) = Monomer B (PyrS), N-Alloc pyrrolidine stapling residue, (S)-3-amino-1-(allyloxycarbonyl)pyrrolidine-3-carboxylic acid, C=CCOC(=O)N1CC[C@@](N[*:1])(C(=O)[*:2])C1; MB″ = Monomer B (PyrS), pyrrolidine stapling residue with N-allyl carbamate, forms carbamate staple with R8 by olefin metathesis; MB(6) = Monomer B (PyrS), N-Alloc pyrrolidine stapling residue, forms carbamate staple with R8 by olefin metathesis; Tyr(OMe) = O-methyl tyrosine (source code MeY), COc1ccc(C[C@H](N[*:1])C(=O)[*:2])cc1; MB(5) = Monomer B (PyrS), N-Alloc pyrrolidine stapling residue; Ala(2-furyl) = N[C@@H](Cc1ccco1)C(=O)O; Phe(4-F) = N[C@@H](Cc1ccc(F)cc1)C(=O)O; Phe(4-Me) = Cc1ccc(C[C@H](N)C(=O)O)cc1; 1Nal = N[C@@H](Cc1cccc2ccccc12)C(=O)O; Ala(cPr) = N[C@@H](CC1CC1)C(=O)O; 2Pal = N[C@@H](Cc1ccccn1)C(=O)O; 3Pal = N[C@@H](Cc1cccnc1)C(=O)O; R8 = C=CCCCCCC[C@@](C)(N)C(=O)O; 2Thi = N[C@@H](Cc1cccs1)C(=O)O; Cha = N[C@@H](CC1CCCCC1)C(=O)O; Cba = N[C@@H](CC1CCC1)C(=O)O; Tle = CC(C)(C)[C@H](N)C(=O)O; cpa = 3-cyclopropylalanine; Nva = CCC[C@H](N)C(=O)O

The chains are these.
T1: full-length beta-catenin (UniProt P35222 2-781, limits assumed)
T1 construct: mature; also called full-length ß-Catenin; β-catenin
T1 sequence (looked up): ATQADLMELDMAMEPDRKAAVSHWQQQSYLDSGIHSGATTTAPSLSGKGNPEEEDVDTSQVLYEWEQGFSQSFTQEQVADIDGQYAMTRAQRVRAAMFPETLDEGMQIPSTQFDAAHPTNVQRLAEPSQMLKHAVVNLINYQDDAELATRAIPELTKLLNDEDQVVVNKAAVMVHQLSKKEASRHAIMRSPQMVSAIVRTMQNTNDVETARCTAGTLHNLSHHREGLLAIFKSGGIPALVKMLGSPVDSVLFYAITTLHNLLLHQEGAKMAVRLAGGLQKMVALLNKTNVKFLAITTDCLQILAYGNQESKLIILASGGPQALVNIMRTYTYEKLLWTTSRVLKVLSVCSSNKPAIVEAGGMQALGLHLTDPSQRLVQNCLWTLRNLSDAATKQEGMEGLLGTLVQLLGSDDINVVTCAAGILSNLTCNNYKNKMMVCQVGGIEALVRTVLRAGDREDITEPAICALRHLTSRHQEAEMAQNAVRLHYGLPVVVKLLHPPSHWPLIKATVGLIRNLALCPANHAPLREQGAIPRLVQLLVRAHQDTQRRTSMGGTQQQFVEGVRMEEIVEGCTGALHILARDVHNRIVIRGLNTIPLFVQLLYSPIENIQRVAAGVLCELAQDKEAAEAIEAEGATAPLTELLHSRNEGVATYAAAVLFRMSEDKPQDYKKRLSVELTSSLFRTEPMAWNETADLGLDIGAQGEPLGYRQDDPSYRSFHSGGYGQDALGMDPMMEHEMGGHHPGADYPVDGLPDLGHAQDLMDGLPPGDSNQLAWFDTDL

B1: FP0565c Isomer 1 (peptide)
peptide: Ac-A[R8]ILDA[2Pal]I[MB″][Cba]VW-NH2
modifications: staple 2-9; not fully specified; printed as Ac-A-R8-I-L-D-A-2pyr-I-MB-Cba-V-W-NH2
B2: FP0577c Isomer 1 (peptide)
peptide: Ac-A[R8]ILDA[2Pal]I[MB(4)][1Nal]VW-NH2
modifications: staple 2-9; not fully specified; printed as Ac-A-R8-I-L-D-A-2pyr-I-MB-1NapA-V-W-NH2
B3: FP0566c Isomer 1 (peptide)
peptide: Ac-A[R8]ILDA[2Pal]I[MB(6)][Cha]VW-NH2
modifications: staple 2-9; not fully specified; printed as Ac-A-R8-I-L-D-A-2pyr-I-MB-Cha-V-W-NH2
B4: FP0576c Isomer 1 (peptide)
peptide: Ac-A[R8]ILDA[2Pal]I[MB(4)][Phe(4-F)]VW-NH2
modifications: staple 2-9; not fully specified; printed as Ac-A-R8-I-L-D-A-2pyr-I-MB-4FF-V-W-NH2
B5: FP0576c Isomer 2 (peptide)
peptide: Ac-A[R8]ILDA[2Pal]I[MB(4)][Phe(4-F)]VW-NH2
modifications: staple 2-9; not fully specified; printed as Ac-A-R8-I-L-D-A-2pyr-I-MB-4FF-V-W-NH2
B6: FP0569c Isomer 1 (peptide)
peptide: Ac-A[R8]ILDA[2Pal]I[MB(6)][Ala(2-furyl)]VW-NH2
modifications: staple 2-9; not fully specified; printed as Ac-A-R8-I-L-D-A-2pyr-I-MB-fur-V-W-NH2
B7: FP0571c Isomer 1 (peptide)
peptide: Ac-A[R8]ILDA[2Pal]I[MB(6)][2Thi]VW-NH2
modifications: staple 2-9; not fully specified; printed as Ac-A-R8-I-L-D-A-2pyr-I-MB-thi-V-W-NH2
B8: FP0573c Isomer 1 (peptide)
peptide: Ac-A[R8]ILDA[2Pal]I[MB(5)][3Pal]VW-NH2
modifications: staple 2-9; not fully specified; printed as Ac-A-R8-I-L-D-A-2pyr-I-MB-3pyr-V-W-NH2
B9: FP0578c Isomer 1 (peptide)
peptide: Ac-A[R8]ILDA[2Pal]I[MB(4)][Phe(4-Me)]VW-NH2
modifications: staple 2-9; not fully specified; printed as Ac-A-R8-I-L-D-A-2pyr-I-MB-4MeF-V-W-NH2
B10: FP0571c Isomer 2 (peptide)
peptide: Ac-A[R8]ILDA[2Pal]I[MB(6)][2Thi]VW-NH2
modifications: staple 2-9; not fully specified; printed as Ac-A-R8-I-L-D-A-2pyr-I-MB-thi-V-W-NH2
B11: FP0567c Isomer 2 (peptide)
peptide: Ac-A[R8]ILDA[2Pal]I[MB(6)][Nva]VW-NH2
modifications: staple 2-9; not fully specified; printed as Ac-A-R8-I-L-D-A-2pyr-I-MB-Nva-V-W-NH2
B12: FP0569c Isomer 2 (peptide)
peptide: Ac-A[R8]ILDA[2Pal]I[MB(6)][Ala(2-furyl)]VW-NH2
modifications: staple 2-9; not fully specified; printed as Ac-A-R8-I-L-D-A-2pyr-I-MB-fur-V-W-NH2
B13: FP0574c Isomer 1 (peptide)
peptide: Ac-A[R8]ILDA[2Pal]I[MB(5)][Ala(cPr)]VW-NH2
modifications: staple 2-9; not fully specified; printed as Ac-A-R8-I-L-D-A-2pyr-I-MB-cpa-V-W-NH2
B14: FP0568c Isomer 2 (peptide)
peptide: Ac-A[R8]ILDA[2Pal]I[MB(6)][Tle]VW-NH2
modifications: staple 2-9; not fully specified; printed as Ac-A-R8-I-L-D-A-2pyr-I-MB-tLeu-V-W-NH2
B15: FP0575c Isomer 2 (peptide)
peptide: Ac-A[R8]ILDA[2Pal]I[MB(4)][Tyr(OMe)]VW-NH2
modifications: staple 2-9; not fully specified; printed as Ac-A-R8-I-L-D-A-2pyr-I-MB-MeY-V-W-NH2
B16: FP0572c Isomer 1 (peptide)
peptide: Ac-A[R8]ILDA[2Pal]I[MB(5)][2Pal]VW-NH2
modifications: staple 2-9; not fully specified; printed as Ac-A-R8-I-L-D-A-2pyr-I-MB-2pyr-V-W-NH2
B17: FP0567c Isomer 1 (peptide)
peptide: Ac-A[R8]ILDA[2Pal]I[MB(6)][Nva]VW-NH2
modifications: staple 2-9; not fully specified; printed as Ac-A-R8-I-L-D-A-2pyr-I-MB-Nva-V-W-NH2
B18: FP0568c Isomer 1 (peptide)
peptide: Ac-A[R8]ILDA[2Pal]I[MB(6)][Tle]VW-NH2
modifications: staple 2-9; not fully specified; printed as Ac-A-R8-I-L-D-A-2pyr-I-MB-tLeu-V-W-NH2
B19: FP0578c Isomer 2 (peptide)
peptide: Ac-A[R8]ILDA[2Pal]I[MB(4)][Phe(4-Me)]VW-NH2
modifications: staple 2-9; not fully specified; printed as Ac-A-R8-I-L-D-A-2pyr-I-MB-4MeF-V-W-NH2
B20: FP0575c Isomer 1 (peptide)
peptide: Ac-A[R8]ILDA[2Pal]I[MB(4)][Tyr(OMe)]VW-NH2
modifications: staple 2-9; not fully specified; printed as Ac-A-R8-I-L-D-A-2pyr-I-MB-MeY-V-W-NH2
B21: FP0573c Isomer 2 (peptide)
peptide: Ac-A[R8]ILDA[2Pal]I[MB(5)][3Pal]VW-NH2
modifications: staple 2-9; not fully specified; printed as Ac-A-R8-I-L-D-A-2pyr-I-MB-3pyr-V-W-NH2
B22: FP0565c Isomer 2 (peptide)
peptide: Ac-A[R8]ILDA[2Pal]I[MB(6)][Cba]VW-NH2
modifications: staple 2-9; not fully specified; printed as Ac-A-R8-I-L-D-A-2pyr-I-MB-Cba-V-W-NH2
B23: FP0574c Isomer 2 (peptide)
peptide: Ac-A[R8]ILDA[2Pal]I[MB(4)][cpa]VW-NH2
modifications: staple 2-9; not fully specified; printed as Ac-A-R8-I-L-D-A-2pyr-I-MB-cpa-V-W-NH2

The target of this experiment is T1, full-length beta-catenin. Put plainly: competition FP; NB = no binding detected. The method, then:
In some embodiments, a competition fluorescence polarization assay is used to assess binding of provided compounds to beta-catenin. In an exemplary procedure, solutions of provided compounds, e.g., provided stapled peptides, were prepared in a buffer (e.g., 50 mM Tris pH 8.0, 250 mM NaCl, 2% glycerol, 0.5 mM EDTA, 0.02% w/v sodium azide) using a 3-fold serial dilution from 5 µM. Probe solution (15 nM full-length ß-Catenin, 20 nM FITC labeled peptide in buffer) was prepared and incubated for a period of time, e.g., 5 minutes, and the a volume, e.g., 40 µL per well plated in suitable plate, e.g., a black polystyrene 384-well plate (Corning). Equal volume of the serial diluted peptide was added to the plate and incubated protected from light for 15 minutes prior to read. Reads were performed on a Spectramax M5 (Molecular Devices) in duplicate. Suitable probe was FITC-PEG1-PQ-S5-ILD-S5-HVRRVWR (SEQ ID NO: 1) (hydrocarbon staple formed by two S5 via olefin metathesis) and/or FITC-bA-PQ-S5-ILD-S5-HVRRVWR (SEQ ID NO: 3) (hydrocarbon staple formed by two S5 via olefin metathesis). […] Another peptide, FPO217c (Ac-AR_8ILDAHIM$B5$RVW (SEQ ID NO: 280), with N-terminal proline removed and valine replaced with isoleucine compared to FP0025c) was prepared.
Consider B1, for which the binding result was “no binding”.

For B2, the binding result is reported as “no binding”.

As for B3, the binding result is given as “no binding”.

With B4, the binding result is on record as “no binding”.

As for B5, the binding result is “no binding”.

Take B6: the binding result is “no binding”.

As for B7, the binding result is “no binding”.

On to B8, for which the binding result was “no binding”.

B9: the binding result is “no binding”.

Take B10: the binding result is listed as “no binding”.

As for B11, the binding result is “no binding”.

As for B12, the binding result is “no binding”.

With B13, the binding result was “no binding”.

Regarding B14, the binding result is “no binding”.

As to B15, the binding result is recorded as “no binding”.

Take B16: the binding result is given as “no binding”.

In the case of B17, the binding result is recorded as “no binding”.

Turning to B18, the binding result is recorded as “no binding”.

On to B19, for which the binding result is “no binding”.

For the molecule B20, the binding result was “no binding”.

In the case of B21, the binding result is listed as “no binding”.

On to B22, for which the binding result is “no binding”.

Take B23: the binding result is listed as “no binding”.

The values above are taken from patent US11198713B2, “Agents modulating beta-catenin functions and methods thereof” (FOG PHARMACEUTICALS, INC., priority 2017, dated 2021).
